Measurements taken from patent US20240010747A1, “ANTI-MRP4 (ENCODED BY ABCC4 GENE) ANTIBODIES AND USES THEREOF” (Kenjockety Biotechnology, Inc., priority 2020, published 2024).
Where a chain is given by its changes, count along the chain named.

B1: C4.994: anti-ABCC4 antibody raised in rats; VH SEQ ID NO: 17, VL SEQ ID NO: 137 (antibody, V domains shown)
VH: QIQLVQSGPELKKPGESVKISCKASGYTFTDYAIHWVTQAPGKGLKWMGWISTYTGKTTYTDDFKGRFVFSLDASASTANLQINNLKNEDTAAYFCARGGLQWFDYWGQGTLVTVSS
VL: EILLTQSPTAMAASPGEKVTITCRASFRVSYMHWYQQKPGASPKPWIYDTSKLASGVPTRFSGSGSGTSYSFTISSMETEDTATYYCQQWTSNSRTFGGGTKLVLK
B2: C4.1006: anti-ABCC4 antibody raised in rats; VH SEQ ID NO: 19, VL SEQ ID NO: 139 (antibody, V domains shown)
VH: EVQLTESGPGLVQPSQTLSLTCTVSGFSLTSYDVHWVRQPPGKGLEWMGRMQNGGSTDYNSALKSRLSISRDTSKSQVFLKMNSVQTEDTAMYFCVRSFIIRGYWGQGASVTVSS
VL: DIVMTQGALPNPVPSGESASITCQSSKSLLYSDGKTYLNWYLQRPGQSPQLLIYWMSIRASGVSDRFSGSGSGTDFTLKISRVEAEDVGVYYCQQFLEFPYTFGAGTKLEIK
B3: C4.1047A: anti-ABCC4 antibody raised in rats; VH SEQ ID NO: 20, VL SEQ ID NO: 140 (antibody, V domains shown)
VH: EVQLMESGPGLVQPSQTLSLTCTVSGLSLISNNINWVRQPPGKGLEWIGAISGGGSAFYNSALKSRLSFSRDTSKSQVFLKMNSLQTEDTAIYFCARGGSEDPDYFDYWGQGVMVTVSS
VL: ETVMTQTPSSLAVSAGETVTINCRSSQSLLYSGNQKNYLAWYQQKPGQSPKLLIYWSSTRQYGVPDRFIGSGSGTDFTLTISSVQAEDLAIYYCQQYYDTPLTFGSGTKLELK
B4: C4.1052: anti-ABCC4 antibody raised in rats; VH SEQ ID NO: 20, VL SEQ ID NO: 141 (antibody, V domains shown)
VH: B3 VH
VL: B3 VL with E1D, T2I, T7S, R24K, Y62S, I69M, L112I
B5: C4.1071: anti-ABCC4 antibody raised in rats; VH SEQ ID NO: 23, VL SEQ ID NO: 145 (antibody, V domains shown)
VH: EVQWKESGPGLVQPSQTLSLTCTVSGFSLTSYGVSWVRQPPGKGLEWIGAIWSGGGTDYNSALKSRLSISRDTSKSQVLLKMNSLQTEDTAMYFCAGNHYFDYWGQGTMVTVSS
VL: AIQVTQSPNSLSASLGDRVTLTCRASQDINNKMAWYQQKPGEVPQLLIYSASTLQSGTPSRFSGSGSGTDFSFTISHLQSEDFATYYCLQGYSLYTFGAGTKLELKRADAAP
B6: C4.1078: anti-ABCC4 antibody raised in rats; VH SEQ ID NO: 26, VL SEQ ID NO: 147 (antibody, V domains shown)
VH: EVQLVESGGGLVQPGGSLRLSCAASGFTFTDFYMSWIRQPPGKTPEWLGVIRNKAYVYTTEYNPSVKGRFTISRDNTQNILYLQMNTLRVEDTAIYYCARNWEGFASWGQGTLVTVSS
VL: DVVMTQTPPSLSVAIGQSVSISCKSSQSLVYSDGKTYLHWLLENSGRSPKRLIYRVSNLDSGVPDRFSGTGSQKDFTLKISRVEAQDLGVYYCAQTTHFPWTFGGGTKLELK
B7: C4.1138: anti-ABCC4 antibody raised in rats; VH SEQ ID NO: 29, VL SEQ ID NO: 149 (antibody, V domains shown)
VH: EVQLKESGPGLVKPSETLSLTCTVSGFSLTSYHVSWVRQPPGKGLEWMGVIWGDGNTAYNSALKSRLSINRDTSKSQVFLKMNSLQTEDTATYYCARHPYYSIPYWGQGASVTVSS
VL: DIVLTQSPTTMAAFPGEKVTITCRASSSVSYMYWYQQKSGASPKSWIYETSKLASGVPDRFSGSGSGTSYSFTISSMETEDAATYYCHQWSSIPLTFGSGTKLEIK
B8: C4.1145: anti-ABCC4 antibody raised in rats; VH SEQ ID NO: 32, VL SEQ ID NO: 151 (antibody, V domains shown)
VH: EVKLVESGGGLVQPGRSLKLSCAASGFTFSNYDMAWVRQAPTKGLEWVASIIPSGGTSYYRDSVKGRFTVSRDNAKSTLYLQMDSLRSEDTATYYCARLTTSHYYVMDAWGQGASVTVSS
VL: DIWMTQSPTSMSISVGDRVTMNCKASQNVGSNVDWYQQKTGQSPKLLIYKASNRYTGVPDRFTGSGSGTDFTFTISNMQAEDLAVYYCMQSNSYPWTFGGGTKLELK
B9: C4.1146: anti-ABCC4 antibody raised in rats; VH SEQ ID NO: 32, VL SEQ ID NO: 152 (antibody, V domains shown)
VH: B8 VH
VL: DIWMTKSPSSMSASLGDRVTITCQASQDIGNNLIWFQQKPGKSPRRMIYYATNLANGVPSRFSGSRSGSDYSLTIISLESEDMADYHCLQYKQYPYTFGAGTKLEIK
B10: C4.1155: anti-ABCC4 antibody raised in rats; VH SEQ ID NO: 35, VL SEQ ID NO: 154 (antibody, V domains shown)
VH: EVKLLESGGGLVQPGGSLRLSCATSGFSFTDFYMSWIRQPLGKAPEWLGVIRNRAIGFRTEYNPSVKGRFTISRDNTQNILYLQMNTLRTEDTAIYYCARNNLGFDYWGQGASVTVSS
VL: TPPSLSVAIGQSVSISCKSSQSLVYSDGKTYLHWLLQISGRSPERLIYQVSNLDSGVPDRFSGTGSQKDFTLKISRVEAKDLGFYYCAQTTHFPYTFGAGTKLELK

biological target: T1, human ABCC4 (Homo sapiens, UniProt O15439); experiment: Flow cytometry (FACS) binding to C6 cells stably transfected to express human ABCC4 (different experiment, Table 4); conditions: C6 cells stably transfected to express human ABCC4, FACS; different experiment, Table 4
T1 construct: expressed in transfected cells
T1 sequence (O15439 1-1325): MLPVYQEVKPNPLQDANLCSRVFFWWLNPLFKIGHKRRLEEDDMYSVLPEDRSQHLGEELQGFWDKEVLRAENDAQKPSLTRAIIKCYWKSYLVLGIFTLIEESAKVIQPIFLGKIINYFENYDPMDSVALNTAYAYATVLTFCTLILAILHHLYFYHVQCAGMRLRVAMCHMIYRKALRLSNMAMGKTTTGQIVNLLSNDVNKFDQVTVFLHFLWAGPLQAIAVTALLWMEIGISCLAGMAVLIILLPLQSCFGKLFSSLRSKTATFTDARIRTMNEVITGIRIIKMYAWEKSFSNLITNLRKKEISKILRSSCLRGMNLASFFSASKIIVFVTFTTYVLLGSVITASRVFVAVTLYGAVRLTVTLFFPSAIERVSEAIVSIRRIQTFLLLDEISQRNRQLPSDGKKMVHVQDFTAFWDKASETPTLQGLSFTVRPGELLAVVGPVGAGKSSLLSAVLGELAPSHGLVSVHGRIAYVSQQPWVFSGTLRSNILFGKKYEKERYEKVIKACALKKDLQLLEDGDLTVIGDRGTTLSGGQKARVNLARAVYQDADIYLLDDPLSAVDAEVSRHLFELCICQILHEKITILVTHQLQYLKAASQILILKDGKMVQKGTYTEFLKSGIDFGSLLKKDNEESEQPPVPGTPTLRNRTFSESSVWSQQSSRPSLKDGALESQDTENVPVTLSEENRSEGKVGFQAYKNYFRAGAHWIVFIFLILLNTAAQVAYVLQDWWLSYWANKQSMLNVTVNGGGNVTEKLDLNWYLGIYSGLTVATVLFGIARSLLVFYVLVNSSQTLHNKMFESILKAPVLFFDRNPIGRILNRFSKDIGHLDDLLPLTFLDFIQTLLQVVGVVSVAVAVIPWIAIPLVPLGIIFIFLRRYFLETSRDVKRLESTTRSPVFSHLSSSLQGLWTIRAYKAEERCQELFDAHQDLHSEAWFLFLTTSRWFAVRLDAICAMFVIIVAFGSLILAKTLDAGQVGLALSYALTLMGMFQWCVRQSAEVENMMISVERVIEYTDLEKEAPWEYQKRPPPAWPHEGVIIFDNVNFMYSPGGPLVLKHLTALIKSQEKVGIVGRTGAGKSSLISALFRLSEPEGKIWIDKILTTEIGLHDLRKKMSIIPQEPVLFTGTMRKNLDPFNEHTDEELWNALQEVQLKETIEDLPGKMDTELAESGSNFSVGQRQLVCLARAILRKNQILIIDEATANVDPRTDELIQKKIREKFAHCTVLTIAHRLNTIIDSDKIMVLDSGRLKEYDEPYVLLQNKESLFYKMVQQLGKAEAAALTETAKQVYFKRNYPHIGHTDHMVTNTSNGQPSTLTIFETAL
Procedure: (§1) Binding titration of recombinant antibodies to ABCC4 transfectants was performed by serial dilution of antibodies from about 666 nM. Diluted antibody in flow cytometry buffer was incubated with cells on ice for 30 min. After 2 washes with flow cytometry buffer, bound antibody was detected with PE-labeled F(ab′)2 fragment goat anti-human IgG (Jackson ImmunoResearch) diluted 1:200 in flow cytometry buffer and incubated with cells for 20 min on ice. After 2 washes with flow cytometry buffer fluorescence was measured on an Attune N×T flow cytometer. Data were analyzed with GraphPad Prism 8.0 software to determine EC50's.
(§2) Human embryonic kidney HEK 293T cells and murine C6 (ATCC CCL-107) were transfected with human or cynomolgus ABCC4 cDNA with C-terminal fused FLAG tag in a pMONO-hygro vector with Lipofectamine 3000 (Invitrogen #L3000001). The cells were treated with 0.2 mg/ml and 0.5 mg/ml hygromycin respectively for about 2 weeks while cultivated in DMEM and 10% FBS with 0.2 mg/ml hygromycin and 0.5 mg/ml hygromycin, respectively. The cells were washed with PBS, and stained with […] of anti-FLAG-PE after fixing and permeablization. Clones expressing ABCC4 were single-cell sorted into 200 μl DMEM with 10% FBS using a BD Aria FACS machine and cultivated in 96 well plates using standard techniques in an incubator at 37° C. and 5% CO 2. Two weeks later clones expressing high levels of ABCC4 were screened and amplified.
(§3) Antibody binding to cells was evaluated by flow cytometry. Murine C6 cells stably transfected to express human or cynomolgus ABCC4 were washed once in flow cytometry buffer (PBS+2% FBS+0.02% sodium azide), resuspended at 2×10^6 cells/mL in flow cytometry buffer, and dispensed into 96-well microtiter plates at 0.1 mL/well. Recombinant antibodies were added to cells at 5 ug/mL for initial binding confirmation, or serially diluted from 100 ug/mL in flow cytometry buffer. After incubating cells on ice for 30 min, cells were washed twice with flow cytometry buffer. Bound antibody was detected with PE-labeled F(ab′)2 fragment goat anti-human IgG (Jackson ImmunoResearch) and evaluated on an Attune N×T flow cytometer. EC50 is calculated to be the concentration of antibody that gives half maximal response.
(§4) In a different experiment, using a different C6.cC4 cell line, detecting the binding of anti-ABCC4 antibodies to C6 cells stably transfected to express human ABCC4 measured by FACS and to C6 cells stably transfected to express cynomolgus ABCC4 measured by FACS, the results set forth in Table 4 were obtained. Negative (−)=Rmax (MFI) below background level. Positive (+)=MFI>3× background level.

Row | Molecule | Human ABCC4 binding
1 | B1 | + (Positive (+)=MFI>3× background level)
2 | B2 | + (Positive (+)=MFI>3× background level)
3 | B3 | + (Positive (+)=MFI>3× background level)
4 | B4 | + (Positive (+)=MFI>3× background level)
5 | B5 | + (Positive (+)=MFI>3× background level)
6 | B6 | + (Positive (+)=MFI>3× background level)
7 | B7 | + (Positive (+)=MFI>3× background level)
8 | B8 | + (Positive (+)=MFI>3× background level)
9 | B9 | + (Positive (+)=MFI>3× background level)
10 | B10 | + (Positive (+)=MFI>3× background level)

system: cynomolgus ABCC4; experiment: Flow cytometry (FACS) binding to C6 cells stably transfected to express cynomolgus ABCC4 (different experiment, different C6.cC4 cell line, Table 4); set-up: key to Cynomolgus ABCC4 binding: Negative (−)=Rmax (MFI) below background level; Positive (+)=MFI>3× background level; conditions: different C6.cC4 cell line, C6 cells stably transfected to express cynomolgus ABCC4, FACS; Table 4
Procedure: as §1, §2, §3, §4

Row | Molecule | Cynomolgus ABCC4 binding
11 | B1 | −
12 | B2 | −
13 | B3 | −
14 | B4 | −
15 | B5 | −
16 | B6 | −
17 | B7 | −
18 | B8 | −
19 | B9 | −
20 | B10 | −
